From patent US20170112908A1

Biological target: polyclonal antibodies in mouse sera specific for human PCSK9 aa 153-162 or aa 153-165
Assay: competition ELISA, 20 ug peptide with sera, plate coated with m2 (competitor)

| Binder | % Competition compared to the related control group |
| --- | --- |
| SIPWNLERISPPR | 79% |
| SIPHNLERIT | 0% |
| SIPWNLERITPPK | 66% |
| SIPWQLERITPPR | 79% |
| SQPWNLERIQ | 66% |
| SIPWNLERITPVR | 75% |
| SVPWNLEKLT | 11% |
| SIPWNLERITPPL | 66% |
| VIPWNLERLT | 54% |
| SQPWNLERIT | 30% |
| SIPWALERIT | 75% |
| SIPWNLERITPNR | 70% |
| SIPANLERIT | 8% |
| TIPWNLERIT | 52% |
| SQPWNLERLT | 69% |
| VQPWSLERLL | 66% |
| SVPWSLERLT | 74% |
| SIPWNLERITPAR | 74% |
| SIPWNLERTT | 73% |
| SIPWNLARIT | 13% |

| Binder | % Competition compared to the related control group |
| --- | --- |
| SIPWNGERIT | 52% |
| ERTKSDPGAQHREF | 0% |
| SVPWNLERIL | 59% |
| VIPWNLERTT | 69% |
| SVPWNLERLT | 57% |
| SGPWNLERITPPR | 54% |
| SIPWNLERITAPR | 70% |
| SQPWNLERIL | 69% |
| AIPWNLERIT | 88% |
| SIPWNLERITPPA | 65% |
| SIAWNLERIT | 78% |
| SQPWSLERTL | 53% |
| SIPWNFERITPPR | 79% |
| SIPWNLERITPPS | 66% |
| SIPWNLERIA | 80% |
| SIPWNLERAT | 77% |
| ITELSRWPNI | 0% |
| SIPGNLERIT | 0% |
| SITWNLERIT | 62% |
| SIPWNLEDIT | 13% |

| Binder | % Competition compared to the related control group |
| --- | --- |
| SIPWNLERIL | 56% |
| SVPWNLERIQ | 61% |
| VIPWNLERIT | 51% |
| SIPWNDERIT | 71% |
| SIPWNLERITPTR | 73% |
| SIPWNLDRITPPR | 53% |
| VIPWNLERIL | 49% |
| SIPWSLERIQ | 44% |
| SIPWSLERIT | 73% |
| SIPWNAERIT | 73% |
| SVPWNLERIT | 62% |
| VQPWSLERTL | 48% |
| SIPWNVERITPPR | 78% |
| VIPWNLERIQ | 47% |
| SVPWNLERTT | 73% |
| SIVWNLERITPPR | 78% |
| SIPWDLERITPPR | 74% |
| SIPSNLERIT | 7% |
| SIPDNLERIT | 3% |
